Experimental data reported in US8217140B2, “Peptides capable of binding to serum proteins and compounds, constructs and polypeptides comprising the same” (Ablynx N.V., priority 2008, dated 2012).
Read-outs that look alike come from different tables or passages of the source. Blank lines part the entries; values can stand above or below the molecule they belong to.

Legend:
[1] = test system: platelet adhesion to fibrillar collagen; assay: Perfusion experiments: platelet adhesion to collagen at arterial shear rate; assay type: cell-based, human
Procedure: The perfusion experiments were performed with a single-pass perfusion chamber under non-pulsatile flow conditions using a modified small perfusion chamber with a slit height of 0.1 mm and a slit width of 2 mm. […] Citrated human blood was preincubated at 37° C. for 5 min with or without addition of test compound, and then perfused through the chamber for 5 min at a wall shear rate of 1600 s^−1 using an infusion/withdrawal pump (pump 22, model 2400-004, Harvard Apparatus, Holliston, Mass.). After the perfusion run, the coverslips were rinsed in Hepes buffered saline (10 mM Hepes, 150 mM NaCl, pH 7.4) and platelets were fixed with 5% glutaraldehyde and stained with May-Grünwald and Giemsa. Platelet deposition of the coverslip was evaluated as platelet surface coverage of 10 randomly chosen pictures using light microscopy (Olympus BX61 microscope using Analysis Five digital imaging solutions analysis software).

[2] = cynomolgus monkey, in vivo
Procedure: The pharmacokinetic profile of the constructs was analyzed in male cynomolgus monkeys of approximately 3 to 4 years old and was compared to the reference (SEQ ID NO:165). The constructs and the control were each injected in three monkeys at a dose of 2 mg/kg via an intravenous bolus injection. Blood samples were taken at predose, 5 min, 20 min, 1 h, 2 h, 4 h, 8 h (test day 1) after administration and at test days 2, 3, 5, 7, 9, 12, 15, 18, 21, 24, 27, 30, 33. In order to obtain at least 1 mL plasma per animal per sampling time, a sufficient volume of whole blood was withdrawn per sampling time. Plasma was collected after whole blood centrifugation for 30 minutes at 2200 g at room temperature (RT). The plasma samples were stored at −80° C. until analysis.
For bioanalytical determination of constructs and control article in monkey plasma, plasma samples were tested for levels of constructs and the control using ELISA based PK assays. The detection of control and constructs in the ELISA assays is based on the binding of these Nanobodies with vWF and the assay set-ups are as such that total vWF-binding Nanobody is detected.
For the reference (SEQ ID NO:165) and the construct of SEQ ID NO:167, 96-well microtiter plates (Maxisorp, Nunc, Wiesbaden, Germany) were coated overnight at 4° C. with neutravidin (Pierce) in 10:10 buffer at 3 μg/ml. Wells were aspirated and blocked for 1 hour at RT with PBS/1% casein. After this blocking step, wells were washed with PBS/0.05% Tween20. A biotinylated bivalent Nanobody against the constructs was added to the neutravidin coated plate at 2 μg/ml in PBS/0.1% casein and incubated for 1 hour at RT. After the incubation step of this capture tool, wells were washed 3 times with PBS/0.05% Tween20.
Preparations of the standards, QC samples and dilutions of the test samples were performed in a non-coated (polypropylene) plate. For the standard curve and QC-samples, solutions at the required concentrations were prepared in PBS/0.1% casein and spiked into 100% monkey plasma. To prepare standards and QC samples, a 1/100 dilution of the pure monkey plasma dilutions was made in IgM-Reducing Agent (Immunochemistry Technologies, Bloomington, USA) supplemented with 2.5% pooled human plasma (referred to as sample diluent). For the test samples, dilution factors for the test samples were estimated, and ranged between 1/100 to 1/9000 for the reference of SEQ ID NO:165 tests and between 1/100 and 12000 for the construct of SEQ ID NO: 167. Samples were diluted 1/100 in sample diluent in a first step, and if needed, further dilution was done in sample diluent supplemented with 1% cynomolgus plasma.
Standards, QC samples and diluted test samples were transferred onto the coated plate and incubated for 1 hour at RT. Afterwards the plates were washed followed by a complexation step with purified vWF (ZLB Behring). vWF diluted to 2.5 μg/ml for the assay for the reference of SEQ ID NO:165 and to 3 μg/ml for the assay for the construct of SEQ ID NO: 167 in PBS/0.1% casein was incubated on the plates for 30 minutes at RT. Plates were washed and Nanobody/vWF complexes bound to the capture tool detected with Rabbit anti-human vWF Ab (Dako, Denmark), diluted 1/2000 in PBS/0.1% casein and incubated for 30 minutes at RT. After washing, a 1/15000 dilution in PBS/0.1% casein of Horse-Radish-Peroxidase labelled goat anti-rabbit Ab (Dako, Denmark) was added to the plate and incubated for 30 minutes at RT. The enzyme coupled to the Ab catalyzes a chemical reaction with the substrate sTMB (3,3′,5,5′-tetramethylbenzidine, SDT reagents, Brussels, Belgium), resulting in a colorimetric change. After stopping this reaction after 10 minutes using HC1 (1N), the intensity of the colour was measured using a spectrophotometer at 450 nm. […]

[3] = test system: VWF; assay: Pharmacodynamic profile: ristocetin cofactor activity assay (% RICO) after i.v. administration; assay type: in vivo, Cynomolgus monkey
Procedure: For the constructs used in Example 14, pharmacodynamic characteristics upon compound administration were measured by means of a ristocetin cofactor activity assay (Biopool). The ristocetin cofactor activity is a functional assay for VWF, measuring the capacity of VWF to interact with the platelet receptor glycoprotein Ib using ristocetin as a modulator.
For pharmacodynamic data analysis, descriptive statistics (mean and SD) were calculated per dose group and per sampling time point using Microsoft Excel 2007. Response parameters and associated statistics for the overall time course were calculated by noncompartmental analysis of the response-time data using WinNonlin Pro 5.1 (Pharsight Corporation, USA; 2006). The non-compartmental analysis was based on a model for pharmacodynamic data (Model 220). The threshold value was set at 20% based on extensive historical PK/PD data on the vWF-0001 compound. Preclinical studies have shown that a complete inhibition of the pharmacodynamic marker are correlated with full antithrombotic efficacy. The following main pharmacodynamic parameters were determined: time below the threshold (Time below T), area under the threshold (AUC below T), time at which the % RICO first drops below the threshold (Tonset), and time at which the % RICO first returns back above the threshold (Toffset).

[4] = biological target: Cynomolgus monkey serum albumin (Macaca fascicularis, UniProt A2V9Z4); assay: Surface plasmon resonance (BIAcore 3000) of 2D3-9GS-56E4 and 2D3-9GS-59C2, Example 11; assay type: binding
Procedure: The binding was determined in BIAcore™ 3000, by injecting concentration series of the fusion proteins ranging from 2 μM to 200 nM on a CM5 chip coated with ˜3000 RU HSA or CSA. Coating of the chip (CM5) was performed by amine coupling using NHS/EDC for activation and ethanolamine for deactivation (Biacore amine coupling kit). HBS-EP was used as flow buffer at a rate of 45 μl min-1. 90 μl of sample was injected for 120 s.

[5] = Pharmacokinetic profile in male cynomolgus monkeys: monovalent Nanobody 2D3 constructs; assay type: in vivo, Cynomolgus monkey
Procedure: The pharmacokinetic profile of this 2D3-9GS-EXP56E4 Nanobody construct (“construct” or “test item” hereafter) was analysed in male cynomolgus monkeys of approximately 3 to 4 years old and was compared to the 2D3 control (“control” or “negative control” hereafter). The construct and the control were each injected in three monkeys. Both the construct and the control were administered at a dose of 2 mg/kg via intravenous infusion. Blood samples were taken at predose, 5 min, 20 min, 1 h, 2 h, 4 h, 8 h, and 16 h after administration and at test days 2, 3, 5, 7, 9, 12, 15, 18, 21, 24, 27, 30, 33, 36, 39, 42, 45, 48, 51, 54, and 57 after the start of the infusion. In order to obtain at least 0.25 mL serum per animal per sampling time, a sufficient volume of whole blood was withdrawn per sampling time and the serum was isolated after 1 h of incubation at 37° C. The serum samples were stored at −80° C.
Serum samples were tested for serum levels of construct and the control, respectively, using the following ELISA assay.
96-well microtiter plates (Maxisorp, Nunc, Wiesbaden, Germany) were coated for 1 hour at 37° C. with Recombinant Human ErbB2/Fc Chimera, C F (R&D Systems, Minneapolis) in PBS at 3 μg/mL for the negative control and 4.5 μg/mL for the test item. Wells were aspirated and blocked for 30 minutes at room temperature (RT) with SuperBlock®T20 PBS (Pierce, Rockford, Ill.). After this blocking step, wells were washed with PBS-0.05% Tween20.
Preparations for the standards, QC samples and dilutions of the test samples were performed in a non-coated (polypropylene) plate.
Standard curve and QC-samples: Solutions at the required concentrations were prepared in PBS 0.1% casein and spiked into 100% monkey serum. To prepare standards and QC samples, a 1/10 dilution of the pure monkey serum dilutions was made in PBS-0.1% casein.
Test samples: Dilution factors for the test samples were estimated, and varied from 1/10 to 1/500. Samples were diluted 1/10 in PBS 0.1% casein in a first step, and if needed, further dilution was done in PBS 0.1% casein containing 10% monkey serum. These sample dilutions were further serially diluted 1/5 in PBS 0.1% casein with 10% monkey serum over 2 wells.
Standards, QC samples and the 1/5 dilutions of the test samples were transferred onto the coated plate and incubated for 1 hour at RT. Afterwards the plates were washed and rabbit polyclonal anti-VHH K1, purified against protein A and Her2/Fc depleted, was added at 1 μg/mL in PBS 0.1% casein, and incubated for 1 hour at RT. After washing a 1/2000 dilution in PBS 0.1% casein of horse radish peroxidase labelled goat anti-rabbit (Dakocytomation, Denmark) was added to the plate and incubated for 30 minutes at RT. This enzyme catalyzes a chemical reaction with the substrate sTMB (3,3′,5,5′-tetramethylbenzidine, SDT reagents, Brussels, Belgium), which results in a colorimetric change. After stopping this reaction after 15 minutes using HCl (1N), the intensity of the colour was measured by a spectrophotometer, which determines the optical density of the reaction product, using a 450 nm wavelength of light.
The concentration of the construct and the control in the serum samples was determined towards a standard curve of the construct and the control, respectively. The concentration determination was performed using the sigmoidal dose-response curve with variable slope. All serum samples were tested minimally in duplicate. Average values were reported. For each sample standard deviations and precision between the different results was calculated.
For blood sampling and processing, the pharmacokinetic profile of the constructs (2D3-9GS-EXP56E4 and 2D3-9GS-EXP59C2) and the negative control 2D3 were determined in male Cynomolgus monkeys of approximately 3 to 4 years old and was compared to that of the control (2D3). The constructs and the control were administered to three monkeys at a dose of 2 mg/kg by intravenous bolus injection. […]

[6] = threshold 20% RICO, i.v. bolus 2 mg/kg, male Cynomolgus monkey, mean n = 3
[7] = serum, i.v. bolus 2 mg/kg, male Cynomolgus monkey, mean n = 3

Cynomolgus monkey serum albumin, sequence (A2V9Z4 25-608): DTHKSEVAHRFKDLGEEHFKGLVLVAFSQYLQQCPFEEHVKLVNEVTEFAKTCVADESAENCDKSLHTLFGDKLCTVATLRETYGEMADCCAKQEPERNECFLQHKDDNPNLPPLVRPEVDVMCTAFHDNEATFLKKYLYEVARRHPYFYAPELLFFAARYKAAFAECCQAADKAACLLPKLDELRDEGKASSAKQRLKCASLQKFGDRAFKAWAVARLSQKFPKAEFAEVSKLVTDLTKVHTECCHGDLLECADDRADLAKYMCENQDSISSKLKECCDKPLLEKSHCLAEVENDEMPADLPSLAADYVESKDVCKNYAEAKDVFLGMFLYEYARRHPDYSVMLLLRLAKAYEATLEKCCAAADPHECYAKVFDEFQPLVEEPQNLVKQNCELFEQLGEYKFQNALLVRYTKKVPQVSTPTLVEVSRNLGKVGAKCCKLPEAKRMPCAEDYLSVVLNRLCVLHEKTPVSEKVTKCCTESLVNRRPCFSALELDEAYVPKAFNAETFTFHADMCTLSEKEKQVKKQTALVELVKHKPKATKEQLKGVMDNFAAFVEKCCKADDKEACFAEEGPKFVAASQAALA

B1: 12A2_sv1-AAA-12A2_sv1-9GS-59C2-9GS-59C2 (protein)
chain: DVQLVESGGGLVQPGGSLRLSCAASGRTFSYNPMGWFRQAPGKGRELVAAISRTGGSTYYPESVEGRFTISRDNAKRTVYLQMNSLRAEDTAVYYCAAAGVRAEQGRVRTLPSEYTFWGQGTQVTVSSAAAEVQLVESGGGLVQPGGSLRLSCAASGRTFSYNPMGWFRQAPGKGRELVAAISRTGGSTYYPESVEGRFTISRDNAKRTVYLQMNSLRAEDTAVYYCAAAGVRAEQGRVRTLPSEYTFWGQGTQVTVSSGGGGSGGGSRDWDFDVFGGGTPVGGGGGGSGGGSRDWDFDVFGGGTPVGG
Effective concentration compared to VWF0001 ([1]; FIG. 12): similar | inhibition of platelet adhesion to fibrillar collagen at arterial shear rate ([1]; citrated human blood, wall shear rate 1600 s^−1, FIG. 12): dose-dependently and completely inhibit | Vdss lower relative to vWF0001 [2]: 19 fold | dominant half-life (t½ dominant) increase relative to vWF0001 [2]: 158 fold | mean CL decrease compared to the control [2]: 67 fold | AUCinf ([2]; iv, 2 mg/kg): 4140 µg·h/mL | C0 ([2]; iv, 2 mg/kg): 69.4 µg/mL | Tonset values ([3]; estimated, i.v. application): ~5 min | mean AUC under the threshold increase relative to vWF0001 ([3]; i.v. bolus): 259 fold | time below the threshold increase relative to vWF0001 ([3]; i.v. bolus): 167 fold | AUC below T [3, 6]: 1709 % RICO * h | Time below T [3, 6]: 202 h | Tonset ([3]; time % RICO first drops below threshold, i.v. bolus 2 mg/kg): 0.079 h | Toffset ([3]; time % RICO first returns above threshold, i.v. bolus 2 mg/kg): 202 h

koff (dissociation rate constant) ([4]; dissociation rate): 0.00247 s⁻¹ | ka ([4]; untagged constructs): 8.98E+03 1/ms
B2: 2D3-9GS-59C2: SEQ ID NO: 164, 59C2 without the two N-terminal alanines fused via 9GS linker to C-terminus of 2D3 (protein)
chain: EVQLVESGGSLVQPGGSLRLSCAASGFTFDDYAMSWVRQVPGKGLEWVSSINWSGTHTDYADSVKGRFTISRNNANNTLYLQMNSLKSEDTAVYYCAKNWRDAGTTWFEKSGSAGQGTQVTVSSGGGGSGGGSRDWDFDVFGGGTPVGG
Vdss ([5]; i.v. bolus 2 mg/kg, male Cynomolgus monkey, mean n = 3): 0.0455 L/kg | exposure higher and total body clearance (CL) lower than after 2D3 ([5]; on average, relative to control article 2D3): 77 fold | mean Vdss lower compared to 2D3 ([5]; relative to 2D3): 2.6 fold | AUCinf [5, 7]: 1540 µg·h/mL | C0 [5, 7]: 62.5 µg/mL
